# Test results reported in the nanobody polyreactivity screen of Harvey et al. (2022).
# Assay: yeast display, Sf9 membrane polyspecificity reagent, FACS + sequencing; frameworks hold sequencing errors
# Procedure, shortened: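 Galactose-induced (36–48 hours) yeast carrying a synthetic nanobody display library were exposed to 10% biotinylated, detergent-solubilized Sf9 membrane reagent at 4 °C for 1 hour. FACS followed streptavidin microbead enrichment, using low and high (top ~1%) gates for expression (anti-HA) and reagent binding (streptavidin). Colony PCR, MiSeq 2 × 250 sequencing and CDR-length filtering followed. Labels for polyreactivity reflect the gate of origin.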
row,Sequence,polyreactivity (PSR sort gate)
1,QVQLVESGGGLVQAGGSLRLSCAASGRIFTRYAMGWYRQAPGKERELVAVITRSGGSTYYADSVKGRFTISRDNAKNTVYLQMNSLKPEDTAVYYCAAKYYGEMYYWGQGTQVTVSS,low polyreactivity
2,QVQLVESGGGLVQAGGSLRLSCAASGRIFTRYAMGWYRQAPGKERELVAVITRSGGSTYYADSVKGRFTLSRDNAKNTVYLQMNSLKPEDTAVYYCAAKYYGEMYYWGQGTQVTVSS,low polyreactivity
3,QVQLVESGGGLVQAGGSLRLSCAASGRIFTRYTMGWYRQAPGKERQLVASITSSGSSSYYADSVKGRFTISRDYAKNTVYLQMNSLKPEDTAVYYCAARSRLRYLYDYWGHGTQVTVSS,high polyreactivity
4,QVQLVESGGGLVQAGGSLRLSCAASGRIFTSNAMGWYRQAPGKERELVAAINRSGGRTYYADSVKGRFTISRDNAKNTVYLQMNSLKPEDTAVYYCNKVPYVFGFAASDYWGQGTQVTVSS,high polyreactivity
5,QVQLVESGGGLVQAGGSLRLSCAASGRIFTSNTMGWYRPAPGKERELVAAITSSGGSMYYADSVKGRFTISRDNAKNTVYIQMNSLKPEDTAVYYCAARNYFWGQGTQVTVSS,low polyreactivity
6,QVQLVESGGGLVQAGGSLRLSCAASGRIFTSYAMGWYRQAPGKEREFVAAITKSGGSTYYADSVKGRFTISRDNAKNTVYLQMNSLKPEDTAVYYCAVEGWDVYQDPYLYDYWGQGTQVTVSS,low polyreactivity
7,QVQLVESGGGLVQAGGSLRLSCAASGRIFTTNAMGWYRQAPGKERELVASISKSGGSTYYADSVKGRFTISRDTAKNTVYLQMNSLKPEDTAVYYCAASSYSTSYIRGDYWGQGTQVTVSS,low polyreactivity
8,QVQLVESGGGLVQAGGSLRLSCAASGRIFTTYAMGWYRQAPGKERELVARITLSAGRTYYADSVKGRFTISRDNAKYSVYLQMNSLKPEDTEVYYCAAEGFYRSSPVRTYIGYDYWGQGTQVTVSS,high polyreactivity
9,QVQLVESGGGLVQAGGSLRLSCAASGRIFTTYVMGWYRQAPGKERELVAAISARGSTYYADSVKGRFTISRDNAKNTVYLEMNSLKPEDTAVYYCAAGHRLPVYYGYPRATYNYWGQGTQVTVSS,low polyreactivity
10,QVQLVESGGGLVQAGGSLRLSCAASGRIFTVNAMGWYRQAPGKERELVAAISKSGGRTYYADSVKGRFTISRDNAKNTVYLQMNSLKPEDTAVYYCAKRVRTGSVGNFNYWGLGTQVTVSS,high polyreactivity
11,QVQLVESGGGLVQAGGSLRLSCAASGRIFTVNTMGWYREAPGKERELVASIRGGGSTNYADSVKGRFTISRDNAKNTVYLQMNSLKPEDTAVYYCAAGTSKPTPIYGYWGQGTQVPVSS,low polyreactivity
12,QVQLVESGGGLVQAGGSLRLSCAASGRIFTVYAMGWYRQAPGQERELVAAISRGGSTYADSVKGRFTISRDNAKISVYLQMNSLKPEDTAVYYCAAVNFRKGEDYWGQGTQVTVSS,high polyreactivity
13,QVQLVESGGGLVQAGGSLRLSCAASGRIFTWNGMGWYRQATGKERELVAAITSGGRTYADSVKGRFTISRDNAKNTVYLQMNSLKPEDTAVYYCAADVRRRYIWYDYWGQGTQVTVSS,high polyreactivity
14,QVQLVESGGGLVQAGGSLRLSCAASGRIFTWYAMGWYRQAPGKERELVAAISWSGGRTYYADSVKGRFTISRDYSKNTVYLQMNSLKPEVTAVYYCAAREPGRTLDYLGQGTQVTVSS,high polyreactivity
15,QVQLVESGGGLVQAGGSLRLSCAASGRIFTYNAMGWSRQAPGKERELVATITNGGRTYYADSVKGRFTISRDNAKNTVYLQMNSLKPEDTAVYYCNAGYITYWYAVFYQIDDYWGQGTQVTVSS,low polyreactivity
16,QVQLVESGGGLVQAGGSLRLSCAASGRIFTYNAMGWYRQAPGKERELVAAISTRGGTTRYADSVKGRFTISRDNAKNTVYLQMNSLKPEDTAVYYCNAVSRGSRWDGLVRLDYWGQGTQVTVSS,high polyreactivity

row,Sequence,polyreactivity (PSR sort gate)
1,QVQLVESGGGLVQAGGSLRLSCAASGRIFTYNAMGWYRQAPGKERELVAVISRRGGSTYYADSVKGRFTISRDYAKNTVYFQMNSLKAEDTAVYYCAGDLPSYPYEYWGQGTQVTVSS,low polyreactivity
2,QVQLVESGGGLVQAGGSLRLSCAASGRIFTYYAMGWYRQAPGKERELVAAISRRGGSTYYADSVKGRFTISRDNAKNTVYLQMNSLKPEDTAVYYCNAPTKAGGSHYWGQGTQVTVSS,high polyreactivity
3,QVQLVESGGGLVQAGGSLRLSCAASGRIFTYYAMGWYRQAPGKERELVAAITSRGGRTYYADSVKGRFTISRDNAKNTVYLQMNSLKPEDTAVYYCNVDRWRRTISHDIYGYWGQGTQVTVSS,high polyreactivity
4,QVQLVESGGGLVQAGGSLRLSCAASGRIFTYYAMGWYSQAPGKERELVAAISRSGGRTYYADSVKGRFTISRDNAKNTVYLQMNSLTPEDTAVYYCAADRLSLRAYDYWGQGTQVTVSS,high polyreactivity
5,QVQLVESGGGLVQAGGSLRLSCAASGRIFTYYAMRWYRQAPGKERELVAGITGSGASTYYADSVKGRFTISRDNAKNTVYLQMNSLKPEDTAVYYCNAPYVIRPFRGRYDYWGQGTLVTVSS,high polyreactivity
6,QVQLVESGGGLVQAGGSLRLSCAASGRIFTYYDMGWYREAPGKERELVAAITWGGGSTYYADSVKGRFTISRDNAKNSVYLQMNSLKPEDSAVYYCATLYYTFVWRHDYWGQGTQVTVSS,low polyreactivity
7,QVQLVESGGGLVQAGGSLRLSCAASGRIFTYYTMAWYRQAPGKERELVAAISWSGGRTYYADSVKGRFTISRDNAKNTVYLQMNSLKPEDTAVYYCARRRAVRFYYWGQGTQVTVSS,high polyreactivity
8,QVQLVESGGGLVQAGGSLRLSCAASGRIFTYYTMGWYRQAPAKYREFVAAISWSGTSTYYADSVKGRFTISRDNAKNTFYLQMNSLKPEDTAVYYFAARDPPRAGYDYWGQGTHVTVSS,high polyreactivity
9,QVQLVESGGGLVQAGGSLRLSCAASGRIFVANAMGWYRQAPGKERELVAAISGRGSRTYYADSVKGRFTISRDNAKNAVYLQMNSLKPEDTAVYYCNARQRRNPGGYGYWGQGTQVTVSS,high polyreactivity
10,QVQLVESGGGLVQAGGSLRLSCAASGRIFVDNAMGWYRQAPGKERELVATISWSGGSTYADSVKGRFTISRDNAKNTVYLQMNSLKPEDTAVYYCAADGSWQFYTLYQEFDYWGQGTQVTVSS,low polyreactivity
11,QVQLVESGGGLVQAGGSLRLSCAASGRIFVFNAMGWYRQAPGKEREFVAVISTGGGSTYYADSVKGRFTISRDNAKNTVYLQMNSLKPEDTAVYYCAAEWRVYYATYGYWGQGTQVTVSS,high polyreactivity
12,QVQLVESGGGLVQAGGSLRLSCAASGRIFVGYAMGWYRQAPGKEREFVAAITFRGGTTYYADSVKGRFTITRDYAKNTVYLQMNSLKPEDTAVYYCAVPLYLYSVEYGYWGQGNQVTVSS,low polyreactivity
13,QVQLVESGGGLVQAGGSLRLSCAASGRIFVGYAMGWYRQAPGKETELVAAISRDGDNTFYADSVKGRFTISRDNAKNTVYLQMNSLKPEDTAVYYCAVDYWVWYGSAYAYDYYWGQGTQVTVSS,low polyreactivity
14,QVQLVESGGGLVQAGGSLRLSCAASGRIFVGYPMGWYRQAPGKERELVAAITSGGSTYYADSVKGRFTISRDNAKNTVSFQMNSLKPEDTAVYYCNAAYQFDSYHLGGYRYEYWGQGTQVTVSS,low polyreactivity
15,QVQLVESGGGLVQAGGSLRLSCAASGRIFVGYYAMGWYRQAPGKERELVAAITIGGRTYYADSVKGRFTISRDNAKNTVYLQMNSLKPEDTAVYYCAASKYTRAYQEYGYWGQGTQVTVSS,high polyreactivity
16,QVQLVESGGGLVQAGGSLRLSCAASGRIFVHYVMGWYRQAPGKERELVAAITVSGGGTYYADSVKGRFTISRDNAKNTVYFQMNSLTPEDTAVYYCNAVPHPYDWGQGTQLTVSS,low polyreactivity
